Reference: PMC1851628 (Nucleic Acids Research, 2007)

Target: the molecule itself
Test: AUC

B1: RepB initiator protein of plasmid pMV158 (natural protein, UniProt P13921 1-210, looked up)
chain: MAKEKARYFTFLLYPESIPSDWELKLETLGVPMAISPLHDKDKSSIKGQKYKKAHYHVLYIAKNPVTADSVRKKIKLLLGEKSLAMVQVVLNVENMYLYLTHESKDAIAKKKHVYDKADIKLINNFDIDRYVTLDVEEKTELFNVVVSLIRAYTLQNIFDLYDFIDENGETYGLTINLVNEVIAGKTGFMKLLFDGAYQRSKRGTKNEER
- stoichiometry N: 6
